Consider 23 sequences from the Immune Epitope Database (IEDB).

What all share (experiment): IEDB peptide-MHC binding, purified MHC/competitive/radioactivity; ≥ and ≤ were set here for values at or beyond the usual limits of such assays
Experiment [1] concerns the target HLA-A*02:01.
For experiment [2], the target named is HLA-A*02:02.
Experiment [3] has as its target HLA-A*02:03.
Experiment [4] has as its target HLA-A*02:06.
Experiment [5] concerns the target HLA-A*68:02.
[6] abbreviates: source organism: Vaccinia virus WR.
Setting [7] is: source organism: Hepacivirus hominis.
[8] abbreviates: source organism: Mammarenavirus choriomeningitidis.
Where [9] appears, read: source organism: Influenza A virus.

In the case of QMLSVVGFLV, the IC50 is 7.5 nM in experiment [1] (source organism: SARS-CoV1); 1.2 nM in experiment [2] (source organism: SARS-CoV1); 6 nM in experiment [3] (source organism: SARS-CoV1); 14 nM in experiment [4] (source organism: SARS-CoV1); 206 nM in experiment [5] (source organism: SARS-CoV1).
For the sequence RAAIDRQVSV, the IC50 in experiment [1] (setting [6]) is 554 nM; in experiment [2] (setting [6]), 626 nM; in experiment [3] (setting [6]), 41 nM; in experiment [4] (setting [6]), 212 nM; in experiment [5] (setting [6]) it was 54 nM.
The corresponding values for RAFIYSIMET are 659 nM, 81 nM, 70 nM, 578 nM and 852 nM.
For RAKRKPAMST, the IC50 in experiment [1] (setting [6]) turned out to be 785 nM; in experiment [2] (setting [6]), 977 nM; in experiment [3] (setting [6]), 1380 nM; in experiment [4] (setting [6]) it was 1550 nM; in experiment [5] (setting [6]) it was 551 nM.
Consider RIASILSLET, for which the IC50 in experiment [1] (setting [6]) worked out at 985 nM; in experiment [2] (setting [6]) it was 583 nM; in experiment [3] (setting [6]), 449 nM; in experiment [4] (setting [6]) it was 751 nM; in experiment [5] (setting [6]), 442 nM.
The corresponding values for RIITILQDI are 146 nM, 583 nM, 5.6 nM, 2 nM and 1490 nM.
With RIITILQDIV, the IC50 was 526 nM in experiment [1] (setting [6]); 595 nM in experiment [2] (setting [6]); 209 nM in experiment [3] (setting [6]); 95 nM in experiment [4] (setting [6]); 290 nM in experiment [5] (setting [6]).
The corresponding values for RIVVALSSLV are 51 nM, 48 nM, 7.2 nM, 9.6 nM and 8.5 nM.
Turning to RIYCSLFKNV, the concentration for half-maximal inhibition (IC50) came out at 62 nM in experiment [1] (setting [6]); 913 nM in experiment [2] (setting [6]); 30 nM in experiment [3] (setting [6]); 7.1 nM in experiment [4] (setting [6]); 549 nM in experiment [5] (setting [6]).
As for RLLAPITAYA, the IC50 is 29 nM in experiment [1] (setting [7]); 5.2 nM in experiment [2] (setting [7]); 25 nM in experiment [3] (setting [7]); 103 nM in experiment [4] (setting [7]); 94 nM in experiment [5] (setting [7]).
The corresponding values for RLLLLGLLLL are 496 nM, 1200 nM, 4250 nM, 1050 nM and 3610 nM.
Regarding RLPSETFPNV, the IC50 in experiment [1] (setting [6]) stood at 0.11 nM; in experiment [2] (setting [6]), 173 nM; in experiment [3] (setting [6]), 14 nM; in experiment [4] (setting [6]) it was 0.58 nM; in experiment [5] (setting [6]) it was 91 nM.
The corresponding values for RLQMAGVEV are 1450 nM, 326 nM, 531 nM, 4110 nM and 2510 nM.
The corresponding values for RLRQDTEDI are 219 nM, 230 nM, 387 nM, 4580 nM and 4170 nM.
Take RMVSLVTSFL: the IC50 came to 108 nM in experiment [1] (source organism: SARS-CoV1); 1.7 nM in experiment [2] (source organism: SARS-CoV1); 12 nM in experiment [3] (source organism: SARS-CoV1); 53 nM in experiment [4] (source organism: SARS-CoV1); 6.3 nM in experiment [5] (source organism: SARS-CoV1).
Consider RNHLRDLMGV, for which the IC50 in experiment [1] (setting [8]) was determined as 113 nM; in experiment [2] (setting [8]), 428 nM; in experiment [3] (setting [8]), 733 nM; in experiment [4] (setting [8]), 107 nM; in experiment [5] (setting [8]), 2820 nM.
As to RTFFLTQGA, the IC50 stood at 3110 nM in experiment [1] (setting [9]); 2010 nM in experiment [2] (setting [9]); 158 nM in experiment [3] (setting [9]); 1990 nM in experiment [4] (setting [9]); 514 nM in experiment [5] (setting [9]).
With RTMPNESRV, the IC50 in experiment [1] (setting [6]) came out at 1510 nM; in experiment [2] (setting [6]), 140 nM; in experiment [3] (setting [6]), 100 nM; in experiment [4] (setting [6]), 155 nM; in experiment [5] (setting [6]), 14 nM.
Take RTNDLTALL: the IC50 is 357 nM in experiment [1] (setting [6]); 3.7 nM in experiment [2] (setting [6]); 7.2 nM in experiment [3] (setting [6]); 119 nM in experiment [4] (setting [6]); 13 nM in experiment [5] (setting [6]).
The corresponding values for RVFKKIMSI are 80 nM, 350 nM, 0.18 nM, 75 nM and 170 nM.
The corresponding values for RVLYDEFVTI are 28 nM, 153 nM, 178 nM, 6.6 nM and 1640 nM.
The corresponding values for RVSENTGMGM are 766 nM, 839 nM, 89 nM, 146 nM and 66 nM.
Turning to RVTTELNIV, the IC50 in experiment [1] (setting [6]) was determined as 818 nM; in experiment [2] (setting [6]), 2460 nM; in experiment [3] (setting [6]), 116 nM; in experiment [4] (setting [6]), 46 nM; in experiment [5] (setting [6]), 481 nM.

One may read the IC50 as the concentration needed to halve the response being measured.
